Measured values taken from PMC10730906.

Target: purified TslA lipase domain (N-terminal domain of SAOUHSC_00406) (S. aureus) (UniProt Q2G0W8)
Assay: ITC; 30 uM TslA in the cell, 300 uM TilA in the syringe; 20 mM HEPES pH 7.5, 150 mM NaCl, 25 °C; Microcal PEAQ-ITC

B1: purified TilA lacking its signal sequence, His tag removed (SAOUHSC_00405) (natural protein)
chain: CGNMKDEQKKEEQTNKTDSKEEQIKKSFAKTLDMYPIKNLEDLYDKEGYRDGEFKKGDKGTWTILTGFSKSNKPGVLDDEGMVLYLNRNTKKATGYYFVNKVYDDISKNHNEKKYRVELKNNKIVLLDNVEDKKLKQKIENFKFFSQYADFKDLKNYQDGNITTNENVPSYEAQYKMNNSDKNVKKLREIYPITTNNSPNLKLYIDGDIKGSSVGYKKIEYKFSKDKGQETTLRDYLNFGPSEGENVE
Kd: 14.2 nM | dH: -20.5 kcal/mol | stoichiometry N: 0.88
